# Assay: soluble on expression in E. coli; label from the status in PepcDB or PDB records
row,Sequence,soluble on expression in E. coli
1,AIAKNFNDEEHNSQLTDEVLPEPEDARVIANILKAVGVESFDTRVVAQLVEFVYKYIGEVLELSKTFAQYAEREDIRQDDVKLAISSLLSKSFTQPPSRDVLLQLCRERNAVPLPVVDTYVGIQLPPKEFQLTTRNYQLKRKTTTESVASQELSEATGNISIGESSLQPNEEESNTMNT,soluble
2,MGSDKIHHHHHHMTASLTALRAFDAAARNGSFRAAAADLNVTPTAISHHIRGLEDQLGVKLFRREGRDVALTDDGRRLADATNQAFGLLDNAVQSLRRSARKAVRVSAGPIFTARWLMPRISDFWEAHREIELEVVPAIHPGARDRENVDIVIRWDRIADMGRDAVKLLELSPVAIASEDFVAKRGPIDHPKDLLILPLLHQRNHWGWLDWFEAMGVSLADPLYGPIFEDANVLLRGAAEGQGAIIGWLPLIDQDLAEKRVVRVFDERIAPTHGYFVDVQHNSRARVEVRAVEDWLISQS,not soluble
3,MAHHHHHHMSVRERAVVLVDGPAVVHRWYHRWSYTSKHTPVDVKRFTITNARHIIATAHSFDPSHLAQHLLSPQVEYAHTPKHNKIIVCFDQGDGGRRELYPAYKENRAEREHAAELSVIKKVAIKVFTGEPKNTLIVLPDLDAKLKDVDAEADDIIATLALHNQQLKIPTVVMSHDYDLYQLIDEANKCYHYDIRTKHLVSEKGVIERVGVHPKLVRDYKSLAGDSSDNIPGVKGIGKTRALQLLKKYGDLEGVLTKGKKKQGGHLGDLLRAGAADAELSRKLVELRSCPKVLKACEAFMKL,soluble
4,PLESCVRLHSSSGTTGNPTVMLYTQNDLDNWSKLMARCMSLSGANRHDIFQNIMGYGLFTGGIGFHYGAERLGMLTIPIGPGNSKRQGWFMKHLGVSVVHILPSYAFRLYSHLKEEGVDPKELPLRIAFIGAEPHSEAMRREIERLYGIKAFNSFGLSEMNGPGVAFECQEQSGMHLW,not soluble
5,MSEENRVGSKIRQLREARDMTVEELAEASQSSSELIQQLENGALVPSLTPLLKIARALGVRLGTFLDDMPQSGPVLVRSGLSENVVRFSGKTERPKKSALEFYSLASDKADRHMEPFIIDIHPSPEESHTLSSHEGEEFIYVLSGEIEIFYGKDVHRLSEGDSIYYDSIVPHDVHAAGKEDARIMAVVYAPL,not soluble
6,MGSSHHHHHHSSGLVPRGSHMGVKSLVPQELIEKIKLISPGTELRKALDDIINANFGALIFLVDDPKKYEDVIQGGFWLDTDFSAEKLYELSKMDGAIVLSEDITKIYYANVHLVPDPTIPTGETGTRHRTAERLAKQTGKVVIAVSRRRNIISLYYKNYKYVVNQVDFLISKVTQAISTLEKYKDNFNKLLSELEVLELENRVTLADVVRTLAKGFELLRIVEEIRPYIVELGEEGRLARMQLRELTEDVDDLLVLLIMDYSSEEVEEETAQNILQDFITRREPSPISISRVLGYDVQQAAQLDDVLVSARGYRLLKTVARIPLSIGYNVVRMFKTLDQISKASVEDLKKVEGIGEKRARAISESISSLKHRKTSE,soluble
7,METSETDSTGNTQTCETRQTRSNSWTAWGIHAISTITDGAKQLYTKALGLDELEEKKLEDEEGVTHVEVDEKTKRDLWNQLSTLVGADVINMRLSLPVWLFEPTTALQRMCETLQFHQLLDMAATCEEPVERDALVAAFTVSAFAHTERVYKPFNPVLGETFEWTSRDGTTRVLCEQVSHHPPVSVSYTEGPGWVAQEVFSCNAYFLGNSVEIRNTGSRYVYLTSFDERYEWTLPVSAAQNLFVGGSFIDHYGELILRSSPRGSVTSLTFTKCGWFGRGRYAVNGDIVDADGYRVMELSGEWNRGLVGFRLDKSSGERVDAKSLWYAGEHKPAVKRDKYNFTNFTYELLEVPDNAESIIPPTDSRFRPDRRALEGNNLSLANLEKVRVENIQRERENQRQKTGTTYVPAWFYQDDNNEWHFGGKYWKETRNMSEDQKEQMKLW,soluble
8,MVKQLNSVEAFREFIHQYPLAVVHVMRDQCSVCHAVLPQIEDLMQSYPNVPLAVINQSQVEAIAGELNIFTVPVDLIFMNGKEMHRQGRFIDMQRFEHHLKQMNDSVNNDVDEHEYRK,soluble
9,MVATLIIIRGNSASGKSTIAKQLQAELGENTLLLSQDYLRREMLGTKDGENTTTIPLLINLLNYGYHNCSYIILEGILRSDWYTPVWKHILKHNPNNTYAYYYDLSFQETVKRHSTR,not soluble
10,MGSDKIHHHHHHMANFIEKITYLGTPAIKAGNEHLEMIVVPEWGSNVISLVDKTTNVQLLREPETAESFHDTPTLYGIPILFPPNRISDGTFSFRGRTYHFDINEKDKHNHLHGFLYHEKWNVVTTKQTDEGVIVETEIDLSELPHVQKQFPHHAVVRMTYTIKENTLFKHATVMNKGKEAFPWGIGYHTTFIFPAESSLFSLTADQQWELDERLLPTGKLMDVPYKEALHEGMDLRHKQLDDVFLSSYQKRGGENQAVIYHQHAHISIIYKADEQFKHWVVYNADGKQGYLCPEPYTWVTNAVNLDLPSSLTGLQVLEPGEETTAKSSITIELNHQ,not soluble
11,VSKRAAPFLYMITQRIEERGLPMELALLPVVESSFDAFAYSHGSAAGLWQFVPGTGKMMGLEQNYWYDGRRDVAASTDAALDYLVQLNERFDGNWEHAIAAYNSGGGRVSSAIRKNKKLGKPVDFFSLDLPKETSSYVPKLLALADVVANQEKYGIDIPSIPNKPVLT,not soluble
12,GRVESVWDLKGVWADQAQSDSQGSTTTATRNALPEHPNALAFQVSVVEASAYKPNTSSGQTQSTNSSPYLHLVKPKKVTQSDKLDDDLKNLLDPNQVRTKLRQSFGTDHSTQPQPQSLKTTTPVFGTSSGNLSSVLSGGGAGGGSSGSGQSGVDLSPVEKVSGWLVGQLPSTSDGNTSSTNNLAPNTNTGNDVVGVGRLSESNAAKMNDDVDGIVRTPLAELLDGEGQTADTGPQSVKFKSPDQIDFNRLFTHPVTDLFDPVTMLVYDQYIPLFIDIPASVNPKMVRLKVLSFDTNEQSLGLRLEFFKPDQDTQPNNNVQVNPNNGDFLPLLTASSQGPQTLFSPF,soluble
13,MGSDKIHHHHHHMSSASLLWCHSGVSTVRFGERIFTLVAGDLLFAPEEAQVADDSQGLVLNIRFETLNIMGPARRIHLGHVWNDRLTFEYSRSLFGKETLSPDIARLFTDRVPTPPLPAPRKARAVAQVLVSNPADQTSLEEFAEIQGVSARTLQRQFLKSTGYSFSEWRAAQRVCVAASLLAHDFSISVVANLVGFAATSSLTRAFRRHTGATPSTFTTGQIGMGSAGHPPRIPATTTFAEAHQDQQLWIYSGTATVTTPGYCRFMGQGDMVTIPAGTQTRIDVAAGSIAFPVPVGLDEWGMDLTRVVAVNNQQPKPLTILEQSEWSKLSEELLNTPVPVQM,not soluble
14,MSLSIIVASTMSDSGKSFITTGLVRILNAKPLKIQNMSLNSISTWDGGEIAFIQAYQAWGAGLRPERYMNPILLKIMGKGLEVIFMGSSLGIMSGNEYYNLATEKLWKKVSQFLSNDVVIEAAGGIGEPNFIDKDITAIKVMKEKRIPAILVLDIDRGGAFASAYGTYMMLPQSVRENLKGFIINKFRGDEKFLNDAIKWLEEKTGMRYLGYLPFFSEPPIMPEDSMNVYNFGDGNVEVAIIAYPYMSNFNEFYALVKSNARVSFVRKPKETAKADLVILPGSRNTLESLKWLVENGFVEQLRQRSMNILGICGGFQILGKKIVDPYGIEAGYPTEYEGLGIFDINVHYSKDKVVSMTTGISEYGEMNGYEIRRGVIKYMGEKPLLKITLRNGEKVSVEDGAKKDNIIGISVHGTLFSDGMKKLLKEFNINIHSQSMEEEIKQQAIRVEQFLRKYLHIDEIVEIYKEGHHHHHH,not soluble
15,MNNKKTGVLLVNLGTPTAPTAAAVKQFLSEFLHDKRVVDMNRFIWCPLLHGVILPIRAPKVAKLYESVWMEEGSPLLVYSQRQVKALEARLSMPVALGMTYGEPRIKSGIESLEQQGCDEIIILPLYPQYSRTTTAAVFDQIAKQYKTTPVLPNFTMIHNYHDHPLYIKALANSVRQSWERNGKGDYVLCSYHGIPQRFVDNGDIYAAHCERTTELLAQELGLTSEQIGMSYQSRFGREEWLKPYTSETLKALAPKGIKSLDIISPAFSSDCLETLEELSEECKEIFMESGGQKYTFIPCLNDDELHIEMMADIVSSKIFNK,not soluble
16,MKIRLLVSILCILFAGCALQQTNRALQPDQRWVTQTLPNGLTYHLYPDSEQEVSIRLYVHAGSMQETAQQAGYAHFIEHMAFNGTRHYQHNDVIRMFEQSGAQFGADFNALTGYDRTVYQLDLPNAQNIDKALLWFADIADGLAFDADEVEKEKGVILGEFRASRTENMSLEQQFYLHQIQGTSYADRDPLGSRELVQAATPDSLKAFYQQWYQPQLAELVITGNFTLEQGQQWVENYFSSWKKGSTEKPASIYHQALNNQDLVAPVTAGESPSLTLIFPQGSAAIKDYASQQEFWRDDVGEQLLHTRLVAAFNDAAQAITGIYATHYEIEGQRYTLISVGFAAEQREKVQALLLETLASMRDYGVTKNELDIILRGYREHLTFLQEDREAITPASHANQKVYSIVFDTPIQATLDYQASLSEFIASATPEMINRHIQQQLSQNPVWVVGVAATEDAQALNKALPQWRNDLAQPGNQPIDQQIDSPFTQQFTAGEVVKQLDINDDPQVTYWQLDNGIDVYYLRNIEAKDRVFVQYASSGGQFALPADLLPAAEIATAVQTRSGLDTLNGSQFDRYLRQKDIGFYSYIASTSHGFEANSKAQELPELLEILHLLSTQVKVSPDQLNSVKTEFTQNRSAYFDSPIGAFFRTVTNQSFIETSPYRIRTPEQIAQVTAQQIEQVHQRLFSEGRNNTLVIVGDIERSQITPMLRQYVASIPLSKGTLSPMTSQLIKPVAPRLELALNNENSTQYSLRLISETQPRTAKTVFIDDMLQRIATQRLLAEVREHQGLDYTPQVIPYVVDGDILNDWVLSALVDPKSEPQVAKVMHEVARELAQGVTQQELDVVKQKFLIDMKPLNKSPEQQAYFMLRYAIHHYGVETIYKVEELTKSITLDDINQRAQTLFGKDTMSQELIMTPKANPKG,not soluble
17,MFDAKKLEQIAKQIHEAMPQPVKELGADVEQKVRQVIQGQLNKLDVVSREEFDVQTQVLLRTRQKLTELEQKMAELEAKLADK,not soluble
18,MAHHHHHHMSSDTMPFKLVEPFVLFHTIFSDDFQHPQVAMITQACGSHSTASNQSTSHFLQIFFDFPLHVEPNEAPTDLIFLCKWGTSHSSHTPPHGNDVNVTRTNFLFRQCSQKKSATDY,not soluble
19,MGSDKIHHHHHHAQDKPQEEGFVFTTVKENPITSIKNQNRSSTCWSFSSLGFLESELLRTGKGEYDLSEMFVVHHTMVDRAVNYVRYHGDSSFSPGGSFYDIMFCMKNYGLVPQDAMPGIMYGDSLPVHNELDATAGAYVNAIAKGNLKKLTPVWKKGLCAIYDTYLGQCPEKFTYKGKEYTPMTFAQSLGLNPDDYVSLTSYTHHPFYSQFAIEIQDNWRNGLSYNLPLDEFMAVMDNAVKNGYTFAWGSDVSEEGFTRDGIAVVPDAAKGAELTGSDMARWTGMTAADKRKELTSKPLPEMKITQEMRQTAFDNWETTDDHGMIIYGIAKDQNGKEYFMVKNSWGTNNKYKGTWYASKAFVAYKTMNILVHKDALPKDIAKKLGIK,not soluble
20,MSLTTMVPTVMNTPTRIEAGRQKFLIFDAPSQENLPAYIEEMRAYEVTDLVRTCERTYDDKTVLASGIRPHELIFPDGEAPPDDVIDEWLTLCNAVSQQRGAIAIHCVAGLGRAPVLVAIALIEKGMDPMDAIMFIRERRKGAINRRQLQFLKGYKRRSNYKEGHHHHHH,soluble
